Values quoted from earlier work in US20210079079A1, “SYSTEMS AND METHODS FOR LOCAL MODULATION OF WNT SIGNALING” (Ortheus, Inc., priority 2018, published 2021).

Conditions: in vivo; cited from earlier work

## DKK1: a secreted protein that inhibits canonical Wnt signaling
  elimination half-life: less than 30 minutes
